In patent US20260116949A1:

Target: endogenous TCRs of un-transduced activated human T cells (Untd)
Assay: flow cytometry, FITC-anti-human TCR Vβ13.1 staining of un-transduced activated human T cells

## FITC anti-human TCR Vβ13.1 Antibody (EBIOSCIENCE, …X, THERMO FISHER …)
  % of cells positive for staining: 3.9%
